# Results from the Immune Epitope Database (IEDB).
# Columns and labels:
# HLA-B*39:01 = experiment: IEDB peptide-MHC binding, purified MHC/competitive/fluorescence; filed as Kd, often an IC50 or EC50 that approximates it; ≥ and ≤ were set here for values at or beyond the usual limits of such assays
# HLA-B*46:01 = experiment: as above
# HLA-A*02:03 = experiment: as above
# HLA-A*68:02 = experiment: as above
# HLA-A*26:01 [1] = experiment: as above
# HLA-A*02:19 = experiment: as above
# HLA-B*57:01 = experiment: as above
# HLA-A*02:01 [2] = experiment: as above
# HLA-A*03:01 [3] = experiment: as above
# HLA-A*69:01 [4] = experiment: as above
# HLA-A*23:01 = experiment: as above
# HLA-B*18:01 = experiment: as above
# HLA-A*29:02 = experiment: as above
# HLA-A*02:16 = experiment: as above
# HLA-A*24:03 = experiment: as above
# HLA-A*02:12 = experiment: as above
# HLA-B*15:01 = experiment: as above
# HLA-A*02:11 = experiment: as above
# HLA-B*15:17 = experiment: as above
# HLA-B*27:03 = experiment: as above
# HLA-B*51:01 = experiment: as above
# HLA-A*01:01 [5] = experiment: as above
# HLA-B*58:01 [6] = experiment: as above; details: source organism: Yersinia pestis Nepal516
# HLA-B*35:01 = experiment: as above
# HLA-C*06:02 = experiment: IEDB peptide-MHC binding, purified MHC/direct/fluorescence; filed as Kd, often an IC50 or EC50 that approximates it; ≥ and ≤ were set here for values at or beyond the usual limits of such assays; details: source organism: Influenza A virus (A/81/HO)
# HLA-A*03:01 [7] = experiment: IEDB peptide-MHC binding, purified MHC/competitive/fluorescence; ≥ and ≤ were set here for values at or beyond the usual limits of such assays; details: source organism: Vaccinia virus Copenhagen
# HLA-B*08:01 = experiment: as above
# HLA-A*24:02 = experiment: as above; details: source organism: Vaccinia virus Copenhagen
# HLA-A*11:01 [8] = experiment: as above; details: source organism: Vaccinia virus Copenhagen
# HLA-A*30:01 = experiment: IEDB peptide-MHC binding, purified MHC/competitive/fluorescence; filed as Kd, often an IC50 or EC50 that approximates it; ≥ and ≤ were set here for values at or beyond the usual limits of such assays; details: source organism: Vaccinia virus WR
# HLA-A*26:01 [9] = experiment: IEDB peptide-MHC binding, purified MHC/direct/fluorescence; filed as Kd, often an IC50 or EC50 that approximates it; ≥ and ≤ were set here for values at or beyond the usual limits of such assays; details: source organism: Camelpox virus M-96
# HLA-B*48:01 = experiment: as above; details: source organism: Camelpox virus M-96
# HLA-B*27:05 = experiment: as above; details: source organism: Camelpox virus M-96
# HLA-A*01:01 [10] = experiment: as above; details: source organism: Camelpox virus M-96
# HLA-A*31:01 = experiment: as above; details: source organism: Camelpox virus M-96
# HLA-A*02:01 [11] = experiment: as above; details: source organism: Camelpox virus M-96
# HLA-A*69:01 [12] = experiment: as above; details: source organism: Camelpox virus M-96
# HLA-B*58:01 [13] = experiment: as above; details: source organism: Variola virus
# HLA-B*08:02 = experiment: as above; details: source organism: Variola virus
# HLA-A*11:01 [14] = experiment: as above; details: source organism: Variola virus
# HLA-B*40:01 = experiment: as above; details: source organism: Camelpox virus M-96
# HLA-A*32:01 = experiment: IEDB peptide-MHC binding, purified MHC/competitive/radioactivity; filed as Kd, often an IC50 or EC50 that approximates it; ≥ and ≤ were set here for values at or beyond the usual limits of such assays; details: source organism: Vaccinia virus WR
# [15] = source organism: Giardia lamblia ATCC 50803
# [16] = source organism: Yersinia pestis Nepal516
# [17] = source organism: Influenza A virus (A/81/HO)
# [18] = source organism: Vaccinia virus WR
# [19] = source organism: Klebsiella pneumoniae subsp. pneumoniae NTUH-K2044
# [20] = source organism: Bacillus anthracis str. A0488
sequence,measurement,setting,value
VIMWYNYLF,Kd,HLA-B*39:01; source organism: Fowlpox virus,≥ 20 µM
same,Kd,HLA-B*46:01; source organism: Fowlpox virus,≥ 20 µM
same,Kd,HLA-A*02:03; source organism: Fowlpox virus,≥ 20 µM
same,Kd,HLA-A*68:02; source organism: Fowlpox virus,≥ 20 µM
same,Kd,HLA-A*26:01 [1]; source organism: Fowlpox virus,≥ 20 µM
same,Kd,HLA-A*02:19; source organism: Fowlpox virus,≥ 20 µM
same,Kd,HLA-B*57:01; source organism: Fowlpox virus,≥ 20 µM
same,Kd,HLA-A*02:01 [2]; source organism: Fowlpox virus,≥ 20 µM
same,Kd,HLA-A*03:01 [3]; source organism: Fowlpox virus,≥ 20 µM
same,Kd,HLA-A*69:01 [4]; source organism: Fowlpox virus,≥ 20 µM
same,Kd,HLA-A*23:01; source organism: Fowlpox virus,≥ 20 µM
same,Kd,HLA-B*18:01; source organism: Fowlpox virus,≥ 20 µM
same,Kd,HLA-A*29:02; source organism: Fowlpox virus,≥ 20 µM
same,Kd,HLA-A*02:16; source organism: Fowlpox virus,≥ 20 µM
same,Kd,HLA-A*24:03; source organism: Fowlpox virus,≥ 20 µM
same,Kd,HLA-A*02:12; source organism: Fowlpox virus,≥ 20 µM
same,Kd,HLA-B*15:01; source organism: Fowlpox virus,≥ 20 µM
same,Kd,HLA-A*02:11; source organism: Fowlpox virus,0.0047 µM
same,Kd,HLA-B*15:17; source organism: Fowlpox virus,≥ 20 µM
same,Kd,HLA-B*27:03; source organism: Fowlpox virus,≥ 20 µM
NAMGADYYA,Kd,HLA-B*39:01; [15],≥ 20 µM
same,Kd,HLA-B*46:01; [15],≥ 20 µM
same,Kd,HLA-A*02:03; [15],≥ 20 µM
same,Kd,HLA-A*26:01 [1]; [15],≥ 20 µM
same,Kd,HLA-A*02:19; [15],0.0151 µM
same,Kd,HLA-B*57:01; [15],≥ 20 µM
same,Kd,HLA-A*02:01 [2]; [15],≥ 20 µM
same,Kd,HLA-A*03:01 [3]; [15],≥ 20 µM
same,Kd,HLA-A*23:01; [15],≥ 20 µM
same,Kd,HLA-B*18:01; [15],≥ 20 µM
same,Kd,HLA-A*29:02; [15],0.869 µM
same,Kd,HLA-A*02:16; [15],≥ 20 µM
same,Kd,HLA-A*24:03; [15],≥ 20 µM
same,Kd,HLA-B*15:01; [15],≥ 20 µM
same,Kd,HLA-B*51:01; [15],≥ 20 µM
same,Kd,HLA-B*15:17; [15],≥ 20 µM
same,Kd,HLA-B*27:03; [15],≥ 20 µM
FTWSGDVRY,Kd,HLA-A*01:01 [5]; [16],0.132 µM
same,Kd,HLA-B*58:01 [6],0.404 µM
same,Kd,HLA-B*35:01; [16],≤ 0.0001 µM
WMACNSAAF,Kd,HLA-B*46:01; [17],0.109 µM
same,Kd,HLA-B*35:01; [17],0.0002 µM
same,Kd,HLA-B*15:01; [17],0.0146 µM
same,Kd,HLA-C*06:02,≥ 20 µM
ITFALKKLI,IC50,HLA-A*03:01 [7],60.8 µM
same,IC50,HLA-B*08:01; source organism: Vaccinia virus Copenhagen,≥ 210 µM
same,IC50,HLA-A*24:02,2.3 µM
same,IC50,HLA-A*11:01 [8],57.7 µM
DIKASNIVL,IC50,HLA-B*08:01; [18],≥ 266 µM
KVLSHGWAY,Kd,HLA-A*03:01 [3]; [19],0.429 µM
same,Kd,HLA-B*35:01; [19],0.0267 µM
TRVLKPSVI,IC50,HLA-B*08:01; [18],≥ 187 µM
TEDDWITYI,Kd,HLA-B*39:01; [15],≥ 20 µM
same,Kd,HLA-B*46:01; [15],≥ 20 µM
same,Kd,HLA-A*02:03; [15],≥ 20 µM
same,Kd,HLA-A*68:02; [15],≥ 20 µM
same,Kd,HLA-A*26:01 [1]; [15],≥ 20 µM
same,Kd,HLA-A*02:19; [15],≥ 20 µM
same,Kd,HLA-B*57:01; [15],≥ 20 µM
same,Kd,HLA-A*02:01 [2]; [15],≥ 20 µM
same,Kd,HLA-A*03:01 [3]; [15],≥ 20 µM
same,Kd,HLA-A*69:01 [4]; [15],≥ 20 µM
same,Kd,HLA-A*23:01; [15],≥ 20 µM
same,Kd,HLA-B*18:01; [15],≥ 20 µM
same,Kd,HLA-A*29:02; [15],≥ 20 µM
same,Kd,HLA-A*02:16; [15],0.402 µM
same,Kd,HLA-A*24:03; [15],≥ 20 µM
same,Kd,HLA-A*02:12; [15],≥ 20 µM
same,Kd,HLA-B*15:01; [15],≥ 20 µM
same,Kd,HLA-B*51:01; [15],≥ 20 µM
same,Kd,HLA-A*02:11; [15],≥ 20 µM
same,Kd,HLA-B*15:17; [15],≥ 20 µM
same,Kd,HLA-B*27:03; [15],≥ 20 µM
ITMVNSLTY,Kd,HLA-B*57:01; [18],0.257 µM
same,Kd,HLA-A*03:01 [3]; [18],0.039 µM
same,Kd,HLA-B*35:01; [18],0.29 µM
same,Kd,HLA-A*30:01,≥ 20 µM
same,Kd,HLA-B*15:01; [18],0.228 µM
same,Kd,HLA-B*15:17; [18],0.0041 µM
same,Kd,HLA-A*26:01 [9],0.258 µM
same,Kd,HLA-B*48:01,≥ 20 µM
same,Kd,HLA-B*27:05,≥ 20 µM
same,Kd,HLA-A*01:01 [10],0.0371 µM
same,Kd,HLA-A*31:01,≥ 20 µM
same,Kd,HLA-A*02:01 [11],≥ 20 µM
same,Kd,HLA-A*69:01 [12],≥ 20 µM
same,Kd,HLA-B*58:01 [13],0.013 µM
same,Kd,HLA-B*08:02,≥ 20 µM
same,Kd,HLA-A*11:01 [14],0.012 µM
same,Kd,HLA-B*40:01,≥ 20 µM
same,Kd,HLA-A*32:01,0.0957 µM
FTIRDVLAY,Kd,HLA-A*01:01 [5]; [16],0.0025 µM
same,Kd,HLA-A*03:01 [3]; [16],≥ 20 µM
same,Kd,HLA-B*58:01 [6],0.0041 µM
same,Kd,HLA-B*35:01; [16],0.0013 µM
SASLAALFY,Kd,HLA-A*01:01 [5]; [20],0.0281 µM
same,Kd,HLA-B*35:01; [20],0.0002 µM
KLWASFFQG,Kd,HLA-B*39:01; [20],≥ 20 µM
same,Kd,HLA-B*46:01; [20],≥ 20 µM
same,Kd,HLA-A*02:03; [20],≥ 20 µM
same,Kd,HLA-A*26:01 [1]; [20],≥ 20 µM
same,Kd,HLA-A*02:19; [20],≥ 20 µM
same,Kd,HLA-B*57:01; [20],≥ 20 µM
same,Kd,HLA-A*02:01 [2]; [20],0.104 µM
same,Kd,HLA-A*03:01 [3]; [20],≥ 20 µM
same,Kd,HLA-A*23:01; [20],≥ 20 µM
same,Kd,HLA-B*18:01; [20],≥ 20 µM
same,Kd,HLA-A*29:02; [20],≥ 20 µM
same,Kd,HLA-A*24:03; [20],≥ 20 µM
same,Kd,HLA-B*15:01; [20],≥ 20 µM
same,Kd,HLA-B*51:01; [20],≥ 20 µM
same,Kd,HLA-A*02:11; [20],0.0025 µM
same,Kd,HLA-B*27:03; [20],≥ 20 µM
